T1: FcγRIIb extracellular domain with C-terminal His tag (human, UniProt P31994 43-217)
T1 construct: extracellular domain; also called FcgRIIb; 2b
T1 sequence (looked up): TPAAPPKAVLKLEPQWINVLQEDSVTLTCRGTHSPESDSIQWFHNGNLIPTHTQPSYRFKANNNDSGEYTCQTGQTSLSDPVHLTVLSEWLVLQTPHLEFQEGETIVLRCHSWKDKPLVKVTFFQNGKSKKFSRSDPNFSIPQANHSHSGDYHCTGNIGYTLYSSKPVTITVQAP

B1: GpH7-A5/GpH7-B3 variant S298_01G/GpL16-k0 (antibody, human IgG1, kappa)
heavy 1: not shown
heavy 2: not shown
light: DIVMTQSPLSLPVTPGEPASISCQASESLVHSNRNTYLHWYLQKPGQSPQLLIYKVSNRFSGVPDRFSGSGSGTDFTLKISRVEAEDVGVYYCSQNTHVPPTFGQGTKVEIERTVAAPSVFIFPPSDEQLKSGTASVVCLLNNFYPREAKVQWKVDNALQSGNSQESVTEQDSKDSTYSLSSTLTLSKADYEKHKVYACEVTHQGLSSPVTKSFNRGEC
notes: Heterodimerized anti-glypican-3 IgG1; alteration only in the GpH7-B3 chain, EU numbering; also called He Ab
B2: GpH7-A5/GpH7-B3 variant Y296_01G/GpL16-k0 (antibody, human IgG1, kappa)
heavy 1: not shown
heavy 2: not shown
light: B1 light
notes: as for B1
B3: GpH7-A5/GpH7-B3 variant S298_02A/GpL16-k0 (antibody, human IgG1, kappa)
heavy 1: not shown
heavy 2: not shown
light: B1 light
notes: Heterodimerized anti-glypican-3 IgG1; S298A (EU numbering) only in the GpH7-B3 chain; also called He Ab; GpH7-A5/GpH7-B3-15-02A/GpL16-k0
B4: GpH7-A5/GpH7-B3 variant Y296_05P/GpL16-k0 (antibody, human IgG1, kappa)
heavy 1: not shown
heavy 2: not shown
light: B1 light
notes: as for B1
B5: GpH7-A5/GpH7-B3 variant Y296_12R/GpL16-k0 (antibody, human IgG1, kappa)
heavy 1: not shown
heavy 2: not shown
light: B1 light
notes: as for B1
B6: GpH7-A5/GpH7-B3 variant S298_03V/GpL16-k0 (antibody, human IgG1, kappa)
heavy 1: not shown
heavy 2: not shown
light: B1 light
notes: as for B1
B7: GpH7-A5/GpH7-B3 variant Y296_08L/GpL16-k0 (antibody, human IgG1, kappa)
heavy 1: not shown
heavy 2: not shown
light: B1 light
notes: as for B1
B8: GpH7-A5/GpH7-B3 variant Y296_03V/GpL16-k0 (antibody, human IgG1, kappa)
heavy 1: not shown
heavy 2: not shown
light: B1 light
notes: as for B1
B9: GpH7-A5/GpH7-B3 variant Y296_11K/GpL16-k0 (antibody, human IgG1, kappa)
heavy 1: not shown
heavy 2: not shown
light: B1 light
notes: as for B1
B10: GpH7-A5/GpH7-B3 variant S298_05P/GpL16-k0 (antibody, human IgG1, kappa)
heavy 1: not shown
heavy 2: not shown
light: B1 light
notes: as for B1
B11: GpH7-A5/GpH7-B3 variant Y296_02A/GpL16-k0 (antibody, human IgG1, kappa)
heavy 1: not shown
heavy 2: not shown
light: B1 light
notes: as for B1
B12: GpH7-A5/GpH7-B3 variant S298_04F/GpL16-k0 (antibody, human IgG1, kappa)
heavy 1: not shown
heavy 2: not shown
light: B1 light
notes: as for B1
B13: GpH7-A5/GpH7-B3 variant S298_07I/GpL16-k0 (antibody, human IgG1, kappa)
heavy 1: not shown
heavy 2: not shown
light: B1 light
notes: as for B1
B14: GpH7-A5/GpH7-B3 variant Y296_07I/GpL16-k0 (antibody, human IgG1, kappa)
heavy 1: not shown
heavy 2: not shown
light: B1 light
notes: as for B1

For the first assay, the target named is T2, FcγRIa extracellular domain with C-terminal His tag (human, UniProt P12314 16-292).
T2 construct: extracellular domain; also called FcgRI; 1a
T2 sequence (P12314 16-292): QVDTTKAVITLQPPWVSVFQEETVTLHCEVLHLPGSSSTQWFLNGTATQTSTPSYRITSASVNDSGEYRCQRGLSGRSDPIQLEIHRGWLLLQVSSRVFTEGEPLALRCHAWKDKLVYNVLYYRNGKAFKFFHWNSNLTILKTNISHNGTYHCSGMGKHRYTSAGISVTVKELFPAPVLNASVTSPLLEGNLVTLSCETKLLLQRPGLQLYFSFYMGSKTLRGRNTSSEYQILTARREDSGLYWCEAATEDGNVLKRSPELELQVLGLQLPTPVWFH
Put plainly: SPR (Biacore); He/Con_1a divided by He/Con_2b (FcγRIa binding over FcγRIIb binding). Here is the method:
(§1) The heterodimerized antibodies He Abs in which one of the H chains was introduced with an alteration were assayed for their binding activities to each activating FcγR and inhibitory FcγR according to the method described in Example 4. […] The activating FcγRs in FIGS. 26, 27, 28, and 29 are FcγRIa, FcγRIIa (R), FcγRIIa (H), and FcγRIIIa, respectively.
(§2) Analysis of interaction between objective antibody and the FcγR was carried out using Biacore T100 (GE Healthcare). HBS-EP+ (GE Healthcare) was used as the running buffer, and the measurement temperature was set to 25° C. Chips produced by immobilizing the antigen peptide by the amine coupling method to a Series S Sencor Chip CM5 (GE Healthcare), or alternatively, chips produced by allowing preliminarily biotinylated antigen peptides to interact with and immobilize onto a Series S Sensor Chip SA (certified) (GE Healthcare) were used. Antibodies of interest were captured onto an antigen peptide-immobilized chip, and allowed to interact to each FcγR diluted with running buffer. To regenerate and repeatedly use the chip, the antibodies captured on the chip were washed off by reacting 10 mM glycine-HCl, pH 1.5.
A general note: In SPR one partner is held on a chip, and binding of the other changes the refractive index at the surface.
With B1, the “He_1a/2b (Ia/IIb)” value was determined as 1.29 ratio.

With B2, the “He_1a/2b (Ia/IIb)” value turned out to be 1.29 ratio.

As for B3, the “He_1a/2b (Ia/IIb)” value came out at 1.45 ratio.

As for B4, the “He_1a/2b (Ia/IIb)” value came out at 2.61 ratio.

With B5, the “He_1a/2b (Ia/IIb)” value turned out to be 1.34 ratio.

On to B6, for which the “He_1a/2b (Ia/IIb)” value is 1.7 ratio.

Regarding B7, the “He_1a/2b (Ia/IIb)” value worked out at 1.26 ratio.

For the molecule B8, the “He_1a/2b (Ia/IIb)” value was 1.31 ratio.

With B9, the “He_1a/2b (Ia/IIb)” value is 1.44 ratio.

With B10, the “He_1a/2b (Ia/IIb)” value came to 7.7 ratio.

Consider B11, for which the “He_1a/2b (Ia/IIb)” value was found to be 1.26 ratio.

On to B12, for which the “He_1a/2b (Ia/IIb)” value came to 1.67 ratio.

For B13, the “He_1a/2b (Ia/IIb)” value is 1.52 ratio.

With B14, the “He_1a/2b (Ia/IIb)” value came to 1.24 ratio.

The target in a further assay is T2, FcγRIa extracellular domain with …. Put plainly: SPR (Biacore), antibody captured via antigen peptide, FcγR as analyte; relative binding. As to the method: as §1, §2
B1: the He/Con_1a is 104 % of GpH7-A5/GpH7-B3/GpL16-k0 (=100).

As to B2, the He/Con_1a is 103 % of GpH7-A5/GpH7-B3/GpL16-k0 (=100).

With B3, the He/Con_1a is 107 % of GpH7-A5/GpH7-B3/GpL16-k0 (=100).

On to B4, for which the He/Con_1a was 95.6 % of GpH7-A5/GpH7-B3/GpL16-k0 (=100).

For B5, the He/Con_1a is 106 % of GpH7-A5/GpH7-B3/GpL16-k0 (=100).

For the molecule B6, the He/Con_1a is 110 % of GpH7-A5/GpH7-B3/GpL16-k0 (=100).

Turning to B7, the He/Con_1a is 104 % of GpH7-A5/GpH7-B3/GpL16-k0 (=100).

As to B8, the He/Con_1a is 104 % of GpH7-A5/GpH7-B3/GpL16-k0 (=100).

Regarding B9, the He/Con_1a is 105 % of GpH7-A5/GpH7-B3/GpL16-k0 (=100).

As to B10, the He/Con_1a was 91.6 % of GpH7-A5/GpH7-B3/GpL16-k0 (=100).

Turning to B11, the He/Con_1a was 103 % of GpH7-A5/GpH7-B3/GpL16-k0 (=100).

Turning to B12, the He/Con_1a was 109 % of GpH7-A5/GpH7-B3/GpL16-k0 (=100).

For the molecule B13, the He/Con_1a is 107 % of GpH7-A5/GpH7-B3/GpL16-k0 (=100).

B14: the He/Con_1a is 104 % of GpH7-A5/GpH7-B3/GpL16-k0 (=100).

In another assay the target is T1, FcγRIIb extracellular domain with …. Described as above. As to the method:
as §1, §2
For the molecule B1, the He/Con_2b is 80.1 % of GpH7-A5/GpH7-B3/GpL16-k0 (=100).

For B2, the He/Con_2b is 79.3 % of GpH7-A5/GpH7-B3/GpL16-k0 (=100).

On to B3, for which the He/Con_2b was 73.4 % of GpH7-A5/GpH7-B3/GpL16-k0 (=100).

For B4, the He/Con_2b was 36.6 % of GpH7-A5/GpH7-B3/GpL16-k0 (=100).

B5: the He/Con_2b was 79.5 % of GpH7-A5/GpH7-B3/GpL16-k0 (=100).

Take B6: the He/Con_2b is 64.5 % of GpH7-A5/GpH7-B3/GpL16-k0 (=100).

Consider B7, for which the He/Con_2b is 82.3 % of GpH7-A5/GpH7-B3/GpL16-k0 (=100).

In the case of B8, the He/Con_2b was 79.3 % of GpH7-A5/GpH7-B3/GpL16-k0 (=100).

Take B9: the He/Con_2b was 72.8 % of GpH7-A5/GpH7-B3/GpL16-k0 (=100).

For the molecule B10, the He/Con_2b was 11.9 % of GpH7-A5/GpH7-B3/GpL16-k0 (=100).

Consider B11, for which the He/Con_2b is 82 % of GpH7-A5/GpH7-B3/GpL16-k0 (=100).

With B12, the He/Con_2b was 65.4 % of GpH7-A5/GpH7-B3/GpL16-k0 (=100).

As for B13, the He/Con_2b was 70.6 % of GpH7-A5/GpH7-B3/GpL16-k0 (=100).

For the molecule B14, the He/Con_2b is 84.3 % of GpH7-A5/GpH7-B3/GpL16-k0 (=100).

Values taken from patent US20150344570A1 (published 2015).
